Experimental data published in patent publication US20220251194A1 (Merck Sharp & Dohme, published 2022).

Columns and labels:
human TIGIT (94AGV) = molecular target: T1, human TIGIT (94AGV) (human, UniProt Q495A1 22-141, limits assumed); assay: SPR (Biacore T200 or 4000), antibody captured via anti-human Fc, antigen as analyte
T1 construct: Lot 94AGV is not described further
T1 sequence (looked up): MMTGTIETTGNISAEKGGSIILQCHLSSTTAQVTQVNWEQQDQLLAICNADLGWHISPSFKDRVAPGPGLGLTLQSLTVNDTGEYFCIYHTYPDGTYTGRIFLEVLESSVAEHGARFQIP
Description: (§1) Binding affinities were measured using a Biacore T200 or Biacore 4000 biosensor (GE Healthcare, Chicago, Ill.). The following running buffer, 10 mM HEPES, 150 mM NaCl, 0.05% v/v Surfactant P20, 3 mM EDTA (GE Healthcare, BR100669, Chicago, Ill.), was used for immobilization, sample dilution and data collection. All experiments were performed at 25° C. Antigen binding to antibodies captured via an anti-human Fc antibody was measured using a Series S Sensor Chip CM5 (GE Healthcare, 29149603, Chicago, Ill.). An anti-human Fc antibody was immobilized on all surfaces of the chip according to the instructions in the Human Antibody Capture Kit (GE Healthcare, BR100839, Chicago, Ill.) and the Amine Coupling Kit (GE Healthcare, BR100633, Chicago, Ill.). […] After the antigen injections the dissociation of the interaction was monitored for 15 minutes. Between binding cycles the antibody and antigen were removed from the chip with a 30 second injection of 3 M MgCl₂.
(§2) The data were processed and fit using Biacore T200 Evaluation Software version 2.0 or Biacore 4000 Evaluation Software version 1.1 (GE Healthcare, Chicago, Ill.). The data were “double referenced” by subtracting the response from a negative control flowcell and subtracting the response from a buffer injection or the average response from two buffer injections. The data were then fit with the ‘1:1 Binding’ model to determine the association rate constant, kₐ (M⁻¹s⁻¹, where “M” equals molar and “s” equals seconds) and the dissociation rate constant, kd (s⁻¹). These rate constants were used to calculate the equilibrium dissociation constant, KD (M)=[…].

[1] = molecular target: T2, Human PD1 (50AFR), [VEGF leader]-Sino-Bio-PD-1_H-[His9G] (human, UniProt Q15116 25-167); assay: as above
T2 construct: Expressed with a VEGF leader; also called PD-1-His (50AFR)
T2 sequence (Q15116 25-167): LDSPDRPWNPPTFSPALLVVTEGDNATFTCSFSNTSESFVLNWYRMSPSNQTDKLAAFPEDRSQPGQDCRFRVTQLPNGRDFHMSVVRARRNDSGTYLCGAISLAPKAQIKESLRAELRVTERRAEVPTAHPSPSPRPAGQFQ
Description: as §1, §2

human LAG-3 (60AXE) = molecular target: T3, human LAG-3 (60AXE) (human, UniProt P18627 23-450, limits assumed); assay: as above
T3 construct: Lot 60AXE is not described further
T3 sequence (looked up): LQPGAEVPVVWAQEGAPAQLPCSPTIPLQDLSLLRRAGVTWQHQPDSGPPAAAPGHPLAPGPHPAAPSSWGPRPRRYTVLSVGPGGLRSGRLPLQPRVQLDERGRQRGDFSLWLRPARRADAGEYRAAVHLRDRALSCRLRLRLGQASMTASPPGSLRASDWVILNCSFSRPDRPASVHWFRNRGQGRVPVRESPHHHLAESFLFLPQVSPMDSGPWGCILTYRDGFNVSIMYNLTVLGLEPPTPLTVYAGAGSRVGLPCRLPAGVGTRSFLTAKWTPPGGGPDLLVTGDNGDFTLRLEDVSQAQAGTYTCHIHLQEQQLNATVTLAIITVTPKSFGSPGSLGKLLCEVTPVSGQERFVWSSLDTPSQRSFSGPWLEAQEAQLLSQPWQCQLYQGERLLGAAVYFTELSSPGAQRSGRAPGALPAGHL
Description: as §1, §2

[2] = molecular target: T2, Human PD1 (50AFR), [VEGF …; assay: SPR sequential antigen injections on captured TsAb; this antigen injected 2nd
Description: (§3) Sample pre-mixes were injected to cover all six sequential combinations of the three antigens. Injection of pre-mixes in appropriate order (e.g., pre-mix 1->4->7, premix 2->6->7, premix 3->5->7) helped to maintain antigen activities from first and second injections and near saturation of the occupied sites in case of notable dissociation. On a Biacore T200, the first two injections were made using the dual inject mode and the third was made using normal injection mode (the difference is extra time between second and third injections). It is possible that antigens themselves could self-associate or interact with one another in the pre-mixes but for simplicity of interpretation, we assumed that to be unlikely or insignificant.
(§4) Each subsequent upward shift in the signal upon premix injection indicates binding of an antigen to an unoccupied site. Typical % BC for a fully occupied site can range from ˜70% to ˜120% due to matrix effects, MW variations (e.g., glycosylation), fast dissociation, nonspecific binding, reagent quality (e.g., aggregation), etc. The % BC indicated in the figures show good overall binding capacity for the three antigens with somewhat higher % BC for the first binder.

[3] = molecular target: T4, TIGIT-His (87AGX), [SLAM Leader]-TIGIT_H-[His9G] (human, UniProt Q495A1 22-141); assay: as above
T4 construct: Expressed with a SLAM leader
T4 sequence (looked up): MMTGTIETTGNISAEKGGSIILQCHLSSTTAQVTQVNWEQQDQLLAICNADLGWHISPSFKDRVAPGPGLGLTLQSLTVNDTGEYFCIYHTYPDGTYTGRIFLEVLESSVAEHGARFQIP
Description: as §3, §4

[4] = molecular target: T5, LAG3-His (66AKO), [VEGF leader]-LAG3_H-[His9G] (human, UniProt P18627 23-450); assay: SPR sequential antigen injections on captured TsAb; this antigen injected 1st
T5 construct: Expressed with a VEGF leader
T5 sequence (looked up): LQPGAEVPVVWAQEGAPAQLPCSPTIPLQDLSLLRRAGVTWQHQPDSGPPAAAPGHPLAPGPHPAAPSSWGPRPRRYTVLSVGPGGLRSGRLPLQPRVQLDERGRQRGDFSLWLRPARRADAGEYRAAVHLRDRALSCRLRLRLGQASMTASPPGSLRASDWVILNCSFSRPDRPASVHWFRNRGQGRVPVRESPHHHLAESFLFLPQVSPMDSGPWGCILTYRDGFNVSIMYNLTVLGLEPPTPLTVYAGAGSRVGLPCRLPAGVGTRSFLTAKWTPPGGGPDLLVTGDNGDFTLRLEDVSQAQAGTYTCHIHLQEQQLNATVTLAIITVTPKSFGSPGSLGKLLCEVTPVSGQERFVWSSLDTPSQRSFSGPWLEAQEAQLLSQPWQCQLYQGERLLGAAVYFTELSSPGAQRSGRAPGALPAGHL
Description: as §3, §4

Kd (human TIGIT (94AGV)): 0.64 nM | Kd [1]: 0.15 nM | Kd (human LAG-3 (60AXE)): 1.5 pM | % BC (estimated % binding capacity) [2]: 74% | % BC (estimated % binding capacity) [3]: 90% | % BC (estimated % binding capacity) [4]: 102%
B1: Anti-PD-1/LAG-3/TIGIT trispecific antibody (TsAb) (Lot 83BCN or 51AVW) (other)
heavy 1: EVQLVQSGAEVKKPGASVKVSCKASGYTFTSYYLYWVRQAPGQGLEWIGGVNPSNAGTNFNEKFKSRVTLTVDTSISTAYMELSRLRSDDTAVYYCTRRLSHYDGGFDYWGQGTTVTVSSASTKGPSVFPLAPSSKSTSGGTAALGCEVTDYFPEPVTVSWNSGALTSGVHTFPAVLESSGLYSLLSVVTVPSSSLGTQTYICNVNHKPSNTKVDKKVEPKSCDKTHTCPPCPAPEAAGGPSVFLFPPKPKDTLMISRTPEVTCVVVSVSHEDPEVKFNWYVDGVEVHNAKTKPREEQYNSTYRVVSVLTVLHQDWLNGKEYKCKVSNKALPAPIEKTISKAKGQPREPQVYVYPPSRDELTKNQVSLTCLVKGFYPSDIAVEWESNGQPENNYKTTPPVLDSDGSFALVSKLTVDKSRWQQGNVFSCSVMHEALHNHYTQKSLSLSPGGGGSGGGSGGGSGGGSDIQMTQSPSSLSASVGDRVTITCRASEHIYSYLSWYQQKPGKVPKLLIYNAKTLAEGVPSRFSGSGSGTDFTLTISSLQPEDVATYYCQHHFGSPLTFGQGTRLEIKGGSSRSSSSGGGGSGGGGSGSEVQLVQSGAEVKKPGSSVKVSCKASGYTFSSYVMHWVRQAPGQGLEWIGYIDPYNDGAKYAQKFQGRVTLTSDKSTSTAYMELSSLRSEDTAVYYCARGGPYGWYFDVWGQGTTVTVSS
light 1: DIVMTQTPLSLSVTPGQPASISCRASKSVSTSGFSYLHWYLQKPGQPPQLLIFLSKYRSSGVPDRFSGSGSGTDFTLKISRVEAEDVGVYYCSQAYHLPLTFGQGTKLEIKRTVAAPSVFIFPPSDERLKSGTASVVCLLNNFYPREAKVQWKVDNALQSGNSQESVTEQDSKDSTYSLSSRLTLSKADYEKHKVYACEVTHQGLSSPVTKSFNRGEC
heavy 2: QMQLVQSGPEVKKPGTSVKVSCKASGYTFTDYNVDWVRQARGQRLEWIGDINPNDGGTIYAQKFQERVTITVDKSTSTAYMELSSLRSEDTAVYYCARNYRWFGAMDHWGQGTTVTVSSASTKGPSVFPLAPSSKSTSGGTAALGCLVKDYFPEPVTVSWNSGALTSGVHTFPAVLQSSGLYKLSSVVTVPSSSLGTQTYICNVNHKPSNTKVDKKVEPKSCDKTHTCPPCPAPEAAGGPSVFLFPPKPKDTLMISRTPEVTCVVVSVSHEDPEVKFNWYVDGVEVHNAKTKPREEQYNSTYRVVSVLTVLHQDWLNGKEYKCKVSNKALPAPIEKTISKAKGQPREPQVYVLPPSRDELTKNQVSLLCLVKGFYPSDIAVEWESNGQPENNYLTWPPVLDSDGSFFLYSKLTVDKSRWQQGNVFSCSVMHEALHNHYTQKSLSLSPGGGGSGGGSGGGSGGGSDIQMTQSPSSLSASVGDRVTITCRASEHIYSYLSWYQQKPGKVPKLLIYNAKTLAEGVPSRFSGSGSGTDFTLTISSLQPEDVATYYCQHHFGSPLTFGQGTRLEIKGGSSRSSSSGGGGSGGGGSGSEVQLVQSGAEVKKPGSSVKVSCKASGYTFSSYVMHWVRQAPGQGLEWIGYIDPYNDGAKYAQKFQGRVTLTSDKSTSTAYMELSSLRSEDTAVYYCARGGPYGWYFDVWGQGTTVTVSS
light 2: DIVMTQTPLSLSVTPGQPASISCKASQSLDYEGDSDMNWYLQKPGQPPQLLIYGASNLESGVPDRFSGSGSGTDFTLKISRVEAEDVGVYYCQQSTEDPRTFGGGTKVEIKRTVAAPSVFIFPPSDEELKSGTATVVCLLNNFYPREAKVQWKVDNALQSGNSQESVTEQDSKDSTYSLSSYLELSKADYEKHKVYACEVTHQGLSSPVTKSFNRGEC
notes: Trispecific heterodimeric IgG1 / kappa; It has one site for PD1, one for LAG3 and two for TIGIT; also called Hz x Hu [PD-1]; [TIGIT]; [LAG3]; TsAb; Anti-human PD1/TIGIT/LAG3 TsAb
